Data published in patent US20240117402A1, “METHODS FOR (POLY) PEPTIDE TANDEM LIGATION AND CYCLIZATION” (Nanyang Technological University, priority 2021, published 2024).
Read-outs that look alike come from different tables or passages of the source. Where a SMILES comes first, the peptide text is derived from it. Where no end group is shown, it is not given here.

Tests used:
[1] = system: MCF-7 cells; test: Fluorescence microscopy cell binding/staining, MCF-7; assay type: cell-based; settings: MCF-7, 30-min treatment
Experimental: A) Fluorescent microscopy analysis of MCF-7 cells after treatment with 20, DOX and blank at room temperature for 30 min. […] For cell staining experiments in A) and B), nucleus was stained with 700 nM of DAPI; 10 μM DOX and 2 μM 20 were used respectively. […] Microscopy analysis of cells treated with 20.
Confocal analysis of MCF-7 and A431 cells treated with affibody 48. Fluorescent microscopy analysis of MCF-7 and A431 cells after treatment with blank, Dox, 47 and 48 for 30 min. For cell staining experiments, cells were fixed with 4% formaldehyde and permeabilized with 0.2% tritonX-100. The cell nucleus was stained with 1 μM of DAPI. Dox and protein 47, 48 diluted in PBS were all added in 10 μM. All the staining experiments were performed for 30 min at room temperature; Scale bar=50 μm.
Peptides or proteins in complete medium were applied to the cells and incubated for 30 min at 37° C. Washing was done 3 times with PBS and cells were subsequently subjected to microscopy analysis.
Cell staining and imaging. MCF-7 and A431 cells cultured in 24 well plates were washed with PBS for 3 times. […] After this, the cells were washed with PBS for 3 times and subjected to imaging analysis using Inverted Fluorescence Microscope (Olympus Life Science #IX71). […] Likewise, “Red” channel (Filter Cube: 550 nm) was used to obtain the doxorubicin fluorescence and “Green” channel (Filter Cube: 450 nm) for fluorescein. […]

[2] = system: A431 cells; test: MTT cell viability assay, A431; assay type: cell-based
Experimental: (§7) Cytotoxicity study of 12. […] Cells were treated either with phosphate buffer (as negative control) 11 or 12 for 72 h and then subjected to microscopy analysis after washing 3 times with PBS; C) IC50 of MCF-7 and A 431 cells. Cells were both treated with 12 for 84 h and then MTT based viability test was performed to acquire the optical absorbance value to allow calculating the corresponding IC50.
(§8) Cell viability assay. MTT assays were carried out following recommended protocols from Sigma-Aldrich (Cat. No. 11465001001). Cells were first seeded in a 96-well tissue culture plate with 100 μl medium to grow until the confluency reached 40-60% of the plates surface. Peptides and proteins were added and incubated for 84 h, followed by adding 10 μl of MTT I to each well and further incubated for approximately 4 h. After this, MTT II was added and incubated at 37° C. for overnight to solubilize the purple crystals. Spectrophotometrical absorbance measurement of the samples was carried out by using a microplate reader (Biotek, citation 5) at the wavelength of 575 nm and the reference wavelength was 670 nm.
(§9) An MTT assay was performed to determine whether 12 had any effects on the two cell lines, the EGFR-overexpressing A431 cells and the MCF-7 cells which have a low EGFR expression level [54]. Both cell lines were treated with 12 for 84 h and then subjected to MTT analysis.
(§10) Next, MTT assay was conducted to determine the IC50.
(§11) Bright Field Microscopy analysis and MTT assay were performed to determine the inhibitory effects of 48 on MCF-7 and A431 cell lines. […] Next, MTT assay was performed to determine the IC50.

[3] = system: EGFR-overexpressing A431 cells; test: Fluorescence microscopy cell binding/staining, A431; assay type: cell-based; settings: A431, 30-min treatment
Experimental: Imaging and binding study of 12 on EGFR-overexpressing A431 cells.
A) Fluorescent microscopy analysis of MCF-7 cells after treatment with 20, DOX and blank at room temperature for 30 min. B) Fluorescent microscopy analysis of A431 cells after treatment with 20, DOX and blank at room temperature for 30 min. For cell staining experiments in A) and B), nucleus was stained with 700 nM of DAPI; 10 μM DOX and 2 μM 20 were used respectively. Scal bar=50 μm. […] Microscopy analysis of cells treated with 20. […] Scal bar=100 μm.
Confocal analysis of MCF-7 and A431 cells treated with affibody 48. Fluorescent microscopy analysis of MCF-7 and A431 cells after treatment with blank, Dox, 47 and 48 for 30 min. […]
MCF-7 and A431 cells cultured in 24 well plates were washed with PBS for 3 times. […] After this, the cells were washed with PBS for 3 times and subjected to imaging analysis using Inverted Fluorescence Microscope (Olympus Life Science #IX71). […] Likewise, “Red” channel (Filter Cube: 550 nm) was used to obtain the doxorubicin fluorescence and “Green” channel (Filter Cube: 450 nm) for fluorescein.
To study the activities of the dually labeled product 12, its binding towards EGFR-overexpressing A431 cells was analyzed.
The intrinsic fluorescence of doxorubicin serves as an imaging tool to visualize the binding of 20 to the cells (FIG. 8A, 8B). […]

[4] = system: MCF-7 cells; test: MTT cell viability assay, MCF-7; assay type: cell-based
Experimental: as §7, §8, §9, §10, §11

[5] = Water solubility; assay type: physicochemical
[6] = system: OaAEP1b; test: OaAEP1b-catalyzed peptide cyclization (substrate screen, pH scan, kinetics); assay type: biochemical; settings: for Km / kcat: cyclization
Experimental: (§1) FIG. 9. Screening of P1′-Asp peptides for cyclization by A) VyPAL2, B) butelase-1 and C) OaAEP1b. Quantitative summary of reaction yields of the reaction mixtures. For each reaction, 25 nM of the enzyme and 5 μM of the peptide substrate (21a-21i) were mixed and reacted at pH 4.5, 25° C. for 60 min. The positive control peptide 21j was performed at the same conditions except at pH 7.4. Average yields and SDs were calculated from experiments performed in triplicate. The amino acid sequence of the peptides used are set forth in SEQ ID Nos. 15-24.
(§2) FIG. 10. Ligation activity of three different ligases under different pH and substrate. Cyclization activity of A) VyPAL2, B) Butelase-1 or C) OaAEP1b towards substrate 21e-DSL and 21j-NGL; Fold difference was calculated using the cyclization rate of 21j-NGL divided by that of 21e-DSL. All the results were the average reaction rate at different pH in triplicate experiments based on MALDI-TOF analysis. Light grey text in the “Fold difference” axis marks to the maximum fold difference.
(§3) FIG. 11. Enzymatic activity of three different ligases on the cyclization reaction of P1-Asp peptide 21e-DSL or 21a-DGL and P1-Asn-peptide 21j-NGL. A) Scheme of PAL-mediated P1-Asp peptide cyclization; B) Enzymatic kinetics of VyPAL2 in cyclizing 21e-DSL at pH 4.5; C) Enzymatic kinetics of VyPAL2 in cyclizing 21e-DSL at pH 7.0; D) Enzymatic kinetics of OaAEP1b in cyclizing 21a-DGL at pH 5.5; E) Enzymatic kinetics of Butelase-1 in cyclizing 21e-DSL at pH 4.5. F) Scheme of PAL-mediated cyclization of peptide 21j-NGL; G). Enzymatic kinetics of butelase-1 in cyclizing […] at pH 4.5; H)
(§4) Enzymatic kinetics of VyPAL2 in cyclizing 21j-NSL at pH 4.5; I) Enzymatic kinetics of butelase-1 in cyclizing 21j-NSL at pH 7.4; J) Enzymatic kinetics of OaAEP1b in cyclizing 21j-NSL at pH 7.0. Sequences of peptides used are set forth in SEQ ID Nos. 15, 19, 24.
(§5) PALs recognize a tripeptide motif Asx-P1′-P2′ in the acyl donor substrate for their catalyzed ligation reactions. Because the formation of the acyl-enzyme thioester intermediate is the rate-limiting step, the leaving group P1′-P2′ also plays an important role in determining the catalytic kinetics of a particular 40 PAL-mediated reaction. Previous studies have determined Leu as a preferred P2′ residue. To identify the most favorable P1′ residues for PAL-catalyzed Asp-ligation, a panel of peptides (peptide 21a-21j) with C-terminal DXL and N-terminal GI motifs was synthesized and cyclization reactions performed. Peptide 21j with a C-terminal NGL, a P1-Asn peptide favored by VyPAL2, was used for comparison with the P1-Asp peptides 21a-21i. […] Meanwhile, the P1′ substrate specificities of the two other ligases - Butelase-1 and OaAEP1b - were also evaluated by using the same substrates 21a-21j.
(§6) A pH scan experiment with the other two ligases: butelase-1 and OaAEP1 b, for their cyclase activity on 21e and 21j was also conducted. […] In fact, the difference in reaction efficiency between 21j and 21e was about 950 times at pH 7.4 (FIG. 10). […] This makes VyPAL2 a more efficient ligase than butelase-1 for Asp-mediated protein modification.
It seems that the microenvironment within the 51 pocket of OaAEP1 b has a unique ability to maintain the γCOOH of P1-Asp in the protonated form. However, for OaAEP1b-catalyzed cyclization, the difference in reactivity between 21j and 21e at pH 4.0-7.4 was not very high. The biggest difference was 9.5 folds at pH 7.4. […]

[7] = system: butelase-1; test: Butelase-1-catalyzed peptide cyclization (substrate screen, pH scan, kinetics); assay type: biochemical; settings: for Km / kcat: Butelase-1, cyclization
Sequence of butelase-1 (as listed by the source): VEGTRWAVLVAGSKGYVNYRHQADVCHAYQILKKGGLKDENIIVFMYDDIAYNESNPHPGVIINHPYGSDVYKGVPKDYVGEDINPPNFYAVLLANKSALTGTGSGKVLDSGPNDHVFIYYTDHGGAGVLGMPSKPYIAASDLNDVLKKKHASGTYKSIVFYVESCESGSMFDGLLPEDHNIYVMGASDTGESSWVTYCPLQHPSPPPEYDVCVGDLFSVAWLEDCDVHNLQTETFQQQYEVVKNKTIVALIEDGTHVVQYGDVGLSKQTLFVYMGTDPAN
Experimental: as §1, §2, §3, §4, §5, §6

[8] = system: VyPAL2; test: VyPAL2-catalyzed peptide cyclization (substrate screen, pH scan, kinetics); assay type: biochemical, Viola yedoensis
Experimental: as §1, §2, §3, §4, §5
scanning experiment using the two peptides 21e and 21j was performed. Cyclization reactions were conducted by mixing 5 μM of peptide 21e or 50 μM of 21j with 25 nM of VyPAL2 over a pH range of 4.0 to 7.4. Results confirmed that the optimum pH for the cyclization of the P1-Asn peptide 21j was 6.5-7.4. But for the P1-Asp peptide 21e (which has the C-terminal DSL tripeptide), the optimum pH was 4.0-4.5.
It is worth noting that, at pH 7.4, VyPAL2 processed peptide 21j for cyclization at a rate that is >1000 folds faster than processing peptide 21e (FIG. 10). This enormous difference of reactivity essentially established the orthogonality for ligation at Asn in the presence of aspartyl bonds.

[9] = molecular target: T1, Peptide 21j (SEQ ID NO:24), GISTKSIPPISYRNGL
T1 chain: GISTKSIPPISYRNGL

[10] = molecular target: T2, Peptide 21a (SEQ ID NO:15), GISTKSIPPISYRDGL
T2 chain: GISTKSIPPISYRDGL

[11] = molecular target: T3, Peptide 1 (SEQ ID NO:7), Ac-KKLAVINHV
T3 chain: KKLAVINHV

[12] = molecular target: T4, Peptide 7 (SEQ ID NO:11), Ac-KKLAVINGF
T4 chain: KKLAVINGF

[13] = molecular target: T5, Peptide 5 (SEQ ID NO:10), GFGGIKA
T5 chain: GFGGIKA

[14] = molecular target: T6, Peptide 21e (SEQ ID NO:19), GISTKSIPPISYRDSL
T6 chain: GISTKSIPPISYRDSL

COc1cccc2c1C(=O)c1c(O)c3c(c(O)c1C2=O)C[C@@](O)(C(=O)CO)C[C@@H]3O[C@H]1C[C@H](N)[C@H](O)[C@H](C)O1 [Dox, doxorubicin]
cell staining (confocal) ([1]; 10 μM): stained | cell staining ([1]; 2 μM 20, 10 μM DOX): stained | IC50 ([2]; Homo sapiens, A-431, A431, 36 h, MTT, read-out: IC50): 1.3 ± 0.04 µM | IC50 ([2]; Homo sapiens, A-431, A431, 96 h, MTT, read-out: IC50): 1.22 ± 0.15 µM | cell staining (confocal) ([3]; 10 μM): stained | cell staining ([3]; 2 μM 20, 10 μM DOX): stained | IC50 ([4]; Homo sapiens, MCF7, MCF-7, 36 h, MTT, read-out: IC50): 1 ± 0.02 µM | IC50 ([4]; Homo sapiens, MCF7, MCF-7, 96 h, MTT, read-out: IC50): 1.6 ± 0.23 µM | water solubility [5]: poorly soluble in water

CC[C@H](C)[C@H](NC(=O)CN)C(=O)NCC(=O)NCC(=O)N[C@@H](Cc1ccccc1)C(=O)N[C@@H](CCCCN)C(=O)NCC(=O)NCC(=O)N[C@H](CCCCN)C(=O)N[C@H](CC(C)C)C(=O)N[C@H](C)C(=O)N[C@H](CCCCN)C(=O)N[C@H](CC(C)C)C(=O)N[C@H](C)C(=O)N[C@H](CCCCN)C(=O)N[C@H](CCCCN)C(=O)N[C@H](CC(C)C)C(=O)N[C@H](C)C(=O)N[C@H](CCCCN)C(=O)N[C@H](CC(C)C)C(=O)N[C@H](C)C(=O)N[C@H](CCCCN)C(N)=O [Peptide 11] (HELM PEPTIDE1{G.I.G.G.F.K.G.G.[dK].[dL].[dA].[dK].[dL].[dA].[dK].[dK].[dL].[dA].[dK].[dL].[dA].[dK].[am]}$$$$V2.0; N-terminus assumed)
IC50 ([2]; 84 h): ~1300 µM | IC50 ([4]; 84 h): ~480 µM

GISTKSIPPISYRDGL (GISTKSIPPISYRDGL-NH2) [Peptide 21a]
Km ([6]; pH 5.5): 35.1 ± 5.9 µM | kcat ([6]; pH 5.5): 5.9 ± 0.7 s⁻¹

GISTKSIPPISYRNGL (GISTKSIPPISYRNGL-NH2) [Peptide 21j]
Km ([6]; pH 7.0): 25.3 ± 2.5 µM | kcat ([6]; pH 7.0): 5.5 ± 0.3 s⁻¹ | difference in reactivity between 21j and 21e (biggest) ([6]; pH 7.4): 9.5 folds | Km ([7]; pH 4.5): 12.7 ± 2.1 µM | kcat ([7]; pH 4.5): 0.6 ± 0.05 s⁻¹ | Km ([7]; pH 7.4): 13.5 ± 1.5 µM | kcat ([7]; pH 7.4): 9.4 ± 0.3 s⁻¹ | difference in reaction efficiency between 21j and 21e ([7]; butelase-1, pH 7.4): about 950 times | optimum pH for cyclization ([8]; 25 nM VyPAL2, pH range 4.0 to 7.4, 5 μM 21e or 50 μM 21j): 6.5-7.4 | Km ([8]; VyPAL2, cyclization, pH 4.5): 28.4 ± 4.1 µM | kcat ([8]; VyPAL2, cyclization, pH 4.5): 1.9 ± 0.18 s⁻¹ | Km ([8]; VyPAL2, cyclization, pH 7.4): 25.8 ± 1.7 µM | Vmax ([8]; VyPAL2, cyclization, pH 7.4): 5.633 µM/min | kcat ([8]; VyPAL2, cyclization, pH 7.4): 5.5 ± 0.4 s⁻¹ | fold difference, cyclization rate of 21j versus 21e ([8]; VyPAL2, pH 7.4): > 1000 folds

B1: OaAEP1b (SEQ ID NO:44) (protein)
chain: SVGTRWAVLIAGSKGYANYRHQAGVCHAYQILKRGGLKDENIVVFMYDDIAYNESNPRPGVIINSPHGSDVYAGVPKDYTGEEVNAKNFLAAILGNKSAITGGSGKVVDSGPNDHIFIYYTDHGAAGVIGMPSKPYLYADELNDALKKKHASGTYKSLVFYLEACESGSMFEGILPEDLNIYALTSTNTTESSWAYYCPAQENPPPPEYNVCLGDLFSVAWLEDSDVQNSWYETLNQQYHHVDKRISHASHATQYGNLKLGEEGLFVYMGSNPANDNYTSLDGNALTPSSIVVNQRDAD
Km, cyclization at pH 7.0 [9]: 25.3 µM | kcat, cyclization at pH 7.0 [9]: 5.5 s⁻¹ | kcat/Km, cyclization at pH 7.0 [9]: 211000 ± 8260 M^-1s^-1 | Km, cyclization at pH 5.5 [10]: 35.1 µM | kcat, cyclization at pH 5.5 [10]: 5.9 s⁻¹ | kcat/Km, cyclization at pH 5.5 [10]: 172000 ± 9250 M^-1s^-1

B2: VyPAL2 (asparaginyl ligase, active form, SEQ ID NO:1) (protein)
chain: DSIGTRWAVLIAGSKGYHNYRHQADVCHMYQILRKGGVKDENIIVFMYDDIAYNESNPFPGIIINKPGGENVYKGVPKDYTGEDINNVNFLAAILGNKSAIIGGSGKVLDTSPNDHIFIYYADHGAPGKIGMPSKPYLYADDLVDTLKQKAATGTYKSMVFYVEACNAGSMFEGLLPEGTNIYAMAASNSTEGSWITYCPGTPDFPPEFDVCLGDLWSITFLEDCDAHNLRTETVHQQFELVKKKIAYASTVSQYGDIPISKDSLSVYM
Km, intermolecular ligation of peptide 1 (varied) with nucleophile peptide 2 [11]: 182 µM | kcat, intermolecular ligation of peptide 1 (varied) with nucleophile peptide 2 [11]: 0.17 S^-1 | kcat/Km, intermolecular ligation of peptide 1 (varied) with nucleophile peptide 2 [11]: 932 M^-1S^-1 | Km, cyclization at pH 4.5 [9]: 28.4 µM | Km, cyclization at pH 7.4 [9]: 25.8 µM | Vmax, cyclization at pH 7.4 [9]: with Vmax of 0.004 and 5.633 µM/min respectively | kcat, cyclization at pH 4.5 [9]: 1.9 s⁻¹ | kcat, cyclization at pH 7.4 [9]: 5.5 s⁻¹ | kcat/Km, cyclization at pH 4.5 [9]: 67000 ± 3230 M^-1s^-1 | kcat/Km, cyclization at pH 7.4 [9]: 214000 ± 3900 M^-1s^-1 | Km, intermolecular ligation of peptide 7 (varied) with nucleophile peptide 2 [12]: 155 µM | kcat, intermolecular ligation of peptide 7 (varied) with nucleophile peptide 2 [12]: 1.1 S^-1 | kcat/Km, intermolecular ligation of peptide 7 (varied) with nucleophile peptide 2 [12]: 7220 M^-1S^-1 | Km, intermolecular ligation of GF-peptide 5 (varied) with acyl substrate peptide 4 [13]: 424 µM | kcat, intermolecular ligation of GF-peptide 5 (varied) with acyl substrate peptide 4 [13]: 8.29 S^-1 | kcat/Km, intermolecular ligation of GF-peptide 5 (varied) with acyl substrate peptide 4 [13]: 19600 M^-1S^-1 | Km, cyclization at pH 4.5 [14]: 25.6 µM | Km, cyclization at pH 7.0 [14]: 42.3 µM | Vmax, cyclization at pH 7.4 [14]: with Vmax of 0.004 and 5.633 µM/min respectively | kcat, cyclization at pH 4.5 [14]: 0.28 s⁻¹ | kcat, cyclization at pH 7.0 [14]: 0.021 s⁻¹ | kcat/Km, cyclization at pH 4.5 [14]: 10900 ± 195 M^-1s^-1 | kcat/Km, cyclization at pH 7.0 [14]: 752 M^-1s^-1 | kcat/Km, cyclization at pH 7.0 (value in running text, differs from Table 2) [14]: kcat/Km as ˜847±123 M -1 5 1
